Test system: Escherichia coli TOP10
Experiment: shrunken log2 fold change of peptide-encoding DNA abundance (4.5 h post-induction vs induction); higher = less antimicrobial activity (less host growth inhibition)
Details: time post-induction: 4.5 h; library: site-saturation at positions 5, 18, 19, 20
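Also: peptides expressed intracellularly from a pBAD plasmid library in pooled LB shake-flask culture, induced with 0.3% L-arabinose, DNA abundance read by NGS, three biological replicates, DESeq2 with apeglm shrinkage.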

Row | Sequence | shrunken log2 fold change
1 | RRIRLRPPRLPRPRPRPHNPPRP | -0.883
2 | RRIRMRPPRLPRPRPRPRGKPRP | 0.97
3 | RRIRKRPPRLPRPRPRPRRIPRP | 0.339
4 | RRIRKRPPRLPRPRPRPDNHPRP | -0.715
5 | RRIRRRPPRLPRPRPRPMWGPRP | 0.0327
6 | RRIRVRPPRLPRPRPRPARTPRP | 0.147
7 | RRIRPRPPRLPRPRPRPICGPRP | 0.103
8 | RRIRWRPPRLPRPRPRPFCQPRP | -0.0441
9 | RRIRRRPPRLPRPRPRPFGLPRP | -0.0905
10 | RRIRCRPPRLPRPRPRPVAQPRP | 0.159
11 | RRIRERPPRLPRPRPRPSALPRP | -0.373
12 | RRIRFRPPRLPRPRPRPKYSPRP | -0.14
13 | RRIRGRPPRLPRPRPRPMMGPRP | 0.409
14 | RRIRVRPPRLPRPRPRPMKQPRP | -0.0165
15 | RRIRERPPRLPRPRPRPLCSPRP | -0.512
16 | RRIRSRPPRLPRPRPRPEMDPRP | -0.0847
17 | RRIRGRPPRLPRPRPRPTKKPRP | 0.689
18 | RRIRVRPPRLPRPRPRPGHWPRP | 0.164
19 | RRIRLRPPRLPRPRPRPTAYPRP | -0.047
20 | RRIRNRPPRLPRPRPRPPPFPRP | 0.47

Row | Sequence | shrunken log2 fold change
21 | RRIRLRPPRLPRPRPRPHMWPRP | -0.325
22 | RRIRVRPPRLPRPRPRPADNPRP | -0.0365
23 | RRIRCRPPRLPRPRPRPQDYPRP | -0.176
24 | RRIRYRPPRLPRPRPRPMPYPRP | -0.0899
25 | RRIRYRPPRLPRPRPRPAIGPRP | -0.105
26 | RRIRMRPPRLPRPRPRPCCYPRP | -0.427
27 | RRIRYRPPRLPRPRPRPWCMPRP | -0.383
28 | RRIRCRPPRLPRPRPRPCANPRP | 0.00335
29 | RRIRQRPPRLPRPRPRPLPSPRP | -0.0393
30 | RRIRERPPRLPRPRPRPSTSPRP | -0.145
31 | RRIRFRPPRLPRPRPRPFCFPRP | -0.343
32 | RRIRIRPPRLPRPRPRPNWEPRP | 0.00543
33 | RRIRQRPPRLPRPRPRPFFKPRP | -0.132
34 | RRIRIRPPRLPRPRPRPQPWPRP | 0.102
35 | RRIRERPPRLPRPRPRPAECPRP | -0.0953
36 | RRIRMRPPRLPRPRPRPSYQPRP | -0.115
37 | RRIRMRPPRLPRPRPRPIEIPRP | -0.0115
38 | RRIRWRPPRLPRPRPRPKYPPRP | -0.582
39 | RRIRHRPPRLPRPRPRPTAVPRP | -0.295
40 | RRIRARPPRLPRPRPRPMYHPRP | -0.215

Row | Sequence | shrunken log2 fold change
41 | RRIRTRPPRLPRPRPRPQWFPRP | -0.0925
42 | RRIRARPPRLPRPRPRPSDQPRP | -0.0615
43 | RRIRMRPPRLPRPRPRPREWPRP | -0.0018
44 | RRIRPRPPRLPRPRPRPLECPRP | -0.000998
45 | RRIRDRPPRLPRPRPRPQPIPRP | 0.152
46 | RRIRFRPPRLPRPRPRPNCMPRP | -0.143
47 | RRIRKRPPRLPRPRPRPRIVPRP | 0.161
48 | RRIRRRPPRLPRPRPRPDVKPRP | 3.47
49 | RRIRFRPPRLPRPRPRPWLSPRP | -0.129
50 | RRIRPRPPRLPRPRPRPCYSPRP | -0.507
51 | RRIRGRPPRLPRPRPRPKKPPRP | -0.0158
52 | RRIRARPPRLPRPRPRPHMFPRP | 0.0892
53 | RRIRNRPPRLPRPRPRPCNSPRP | -0.0484
54 | RRIRDRPPRLPRPRPRPIKWPRP | -0.147
55 | RRIRKRPPRLPRPRPRPPTPPRP | 0.796
56 | RRIRKRPPRLPRPRPRPKHGPRP | 0.157
57 | RRIRHRPPRLPRPRPRPKNMPRP | -0.231
58 | RRIRARPPRLPRPRPRPMTWPRP | 0.307
59 | RRIRLRPPRLPRPRPRPRPSPRP | 0.435
60 | RRIRSRPPRLPRPRPRPEKDPRP | 0.124

From the supplement of paper PMC9112550, “Optimization of the antimicrobial peptide Bac7 by deep mutational scanning” (BMC Biology, 2022)
